Kd and other data for 3 molecules are collected here from publication PMC9891525 (PLOS Pathogens, 2023).

To fix the notation:
B1: purified monoclonal antibody d7 (S97Y, D54I, N57H) (antibody, V domains shown)
VH: QVQLVESGGGVVQPGRSLRLSCAASGFTFSNYAMYWVRQAPGKGLEWVAVISYIGSHKYYADSVKGRFTISRDNSKNTLYLQMNSLRTEDTAVYYCASGSDYGDYLLVYWGQGTLVTVSS
VL: QSALTQPASVSGSPGQSITISCTGTSSDVGGYNYVSWYQQHPGKAPKLMIYDVSKRPSGVSNRFSGSKSGNTASLTISGLQSEDEADYYCNSLTSIYTWVFGGGTKLTVL
B2: purified monoclonal antibody d9 (S97Y, D54L, N57H) (antibody, V domains shown)
VH: QVQLVESGGGVVQPGRSLRLSCAASGFTFSNYAMYWVRQAPGKGLEWVAVISYLGSHKYYADSVKGRFTISRDNSKNTLYLQMNSLRTEDTAVYYCASGSDYGDYLLVYWGQGTLVTVSS
VL: QSALTQPASVSGSPGQSITISCTGTSSDVGGYNYVSWYQQHPGKAPKLMIYDVSKRPSGVSNRFSGSKSGNTASLTISGLQSEDEADYYCNSLTSIYTWVFGGGTKLTVL
B3: purified monoclonal antibody A3 (N57A, L106N) (antibody, V domains shown)
VH: QVQLVESGGGVVQPGRSLRLSCAASGFTFSNYAMYWVRQAPGKGLEWVAVISYDGSAKYYADSVKGRFTISRDNSKNTLYLQMNSLRTEDTAVYYCASGSDYGDYNLVYWGQGTLVTVSS
VL: QSALTQPASVSGSPGQSITISCTGTSSDVGGYNYVSWYQQHPGKAPKLMIYDVSKRPSGVSNRFSGSKSGNTASLTISGLQSEDEADYYCNSLTSISTWVFGGGTKLTVL

This test concerns the target SARS-CoV-2 WT spike RBD (SARS-CoV-2, wild type, UniProt P0DTC2). In words: SPR; Biacore 2000; […]; 45 μL/min, 180 s binding, […] dissociation; 1:1 binding model. To be noted: both partners purified. For orientation: In SPR one partner is held on a chip, and binding of the other changes the refractive index at the surface.
On to B1, for which binding was characterised by a dissociation constant (Kd) of 0.15 nM and the other was 3 times.
For B2, in that order: 0.17 nM and 3 times.
On the same counts, the results for B3 are 0.17 nM and 3 times.
